Measured values taken from IntAct's records for PubMed 29892012.

B1: Zyxin (Homo sapiens), Q15942 (parent)
chain: MAAPRPSPAISVSVSAPAFYAPQKKFGPVVAPKPKVNPFRPGDSEPPPAPGAQRAQMGRVGEIPPPPPEDFPLPPPPLAGDGDDAEGALGGAFPPPPPPIEESFPPAPLEEEIFPSPPPPPEEEGGPEAPIPPPPQPREKVSSIDLEIDSLSSLLDDMTKNDPFKARVSSGYVPPPVATPFSSKSSTKPAAGGTAPLPPWKSPSSSQPLPQVPAPAQSQTQFHVQPQPQPKPQVQLHVQSQTQPVSLANTQPRGPPASSPAPAPKFSPVTPKFTPVASKFSPGAPGGSGSQPNQKLGHPEALSAGTGSPQPPSFTYAQQREKPRVQEKQHPVPPPAQNQNQVRSPGAPGPLTLKEVEELEQLTQQLMQDMEHPQRQNVAVNELCGRCHQPLARAQPAVRALGQLFHIACFTCHQCAQQLQGQQFYSLEGAPYCEGCYTDTLEKCNTCGEPITDRMLRATGKAYHPHCFTCVVCARPLEGTSFIVDQANRPHCVPDYHKQYAPRCSVCSEPIMPEPGRDETVRVVALDKNFHMKCYKCEDCGKPLSIEADDNGCFPLDGHVLCRKCHTARAQT
partner: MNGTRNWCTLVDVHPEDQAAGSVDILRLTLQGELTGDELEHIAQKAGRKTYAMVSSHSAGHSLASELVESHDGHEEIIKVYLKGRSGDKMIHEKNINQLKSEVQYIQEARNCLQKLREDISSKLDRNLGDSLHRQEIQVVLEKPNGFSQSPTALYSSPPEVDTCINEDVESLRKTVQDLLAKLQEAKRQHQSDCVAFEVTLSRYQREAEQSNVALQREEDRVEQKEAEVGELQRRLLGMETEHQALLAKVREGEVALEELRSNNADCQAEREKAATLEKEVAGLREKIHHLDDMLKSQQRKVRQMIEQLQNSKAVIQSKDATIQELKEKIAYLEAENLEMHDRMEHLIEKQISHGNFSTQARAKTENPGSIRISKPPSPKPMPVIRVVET
B2: E3 ubiquitin-protein ligase LNX (Homo sapiens), Q8TBB1 (parent)
chain: MNQPESANDPEPLCAVCGQAHSLEENHFYSYPEEVDDDLICHICLQALLDPLDTPCGHTYCTLCLTNFLVEKDFCPMDRKPLVLQHCKKSSILVNKLLNKLLVTCPFREHCTQVLQRCDLEHHFQTSCKGASHYGLTKDRKRRSQDGCPDGCASLTATAPSPEVSAAATISLMTDEPGLDNPAYVSSAEDGQPAISPVDSGRSNRTRARPFERSTIRSRSFKKINRALSVLRRTKSGSAVANHADQGRENSENTTAPEVFPRLYHLIPDGEITSIKINRVDPSESLSIRLVGGSETPLVHIIIQHIYRDGVIARDGRLLPGDIILKVNGMDISNVPHNYAVRLLRQPCQVLWLTVMREQKFRSRNNGQAPDAYRPRDDSFHVILNKSSPEEQLGIKLVRKVDEPGVFIFNVLDGGVAYRHGQLEENDRVLAINGHDLRYGSPESAAHLIQASERRVHLVVSRQVRQRSPDIFQEAGWNSNGSWSPGPGERSNTPKPLHPTITCHEKVVNIQKDPGESLGMTVAGGASHREWDLPIYVISVEPGGVISRDGRIKTGDILLNVDGVELTEVSRSEAVALLKRTSSSIVLKALEVKEYEPQEDCSSPAALDSNHNMAPPSDWSPSWVMWLELPRCLYNCKDIVLRRNTAGSLGFCIVGGYEEYNGNKPFFIKSIVEGTPAYNDGRIRCGDILLAVNGRSTSGMIHACLARLLKELKGRITLTIVSWPGTFL
partner: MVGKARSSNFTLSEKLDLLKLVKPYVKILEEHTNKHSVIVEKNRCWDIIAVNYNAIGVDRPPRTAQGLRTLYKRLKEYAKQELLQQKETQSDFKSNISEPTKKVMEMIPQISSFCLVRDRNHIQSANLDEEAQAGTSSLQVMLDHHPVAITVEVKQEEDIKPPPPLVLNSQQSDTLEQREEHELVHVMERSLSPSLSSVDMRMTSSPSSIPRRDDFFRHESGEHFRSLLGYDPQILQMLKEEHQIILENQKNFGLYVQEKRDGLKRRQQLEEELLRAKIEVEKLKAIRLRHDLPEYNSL
B3: E3 ubiquitin-protein ligase LNX (Homo sapiens), Q8TBB1 (parent)
chain: B2 chain
partner: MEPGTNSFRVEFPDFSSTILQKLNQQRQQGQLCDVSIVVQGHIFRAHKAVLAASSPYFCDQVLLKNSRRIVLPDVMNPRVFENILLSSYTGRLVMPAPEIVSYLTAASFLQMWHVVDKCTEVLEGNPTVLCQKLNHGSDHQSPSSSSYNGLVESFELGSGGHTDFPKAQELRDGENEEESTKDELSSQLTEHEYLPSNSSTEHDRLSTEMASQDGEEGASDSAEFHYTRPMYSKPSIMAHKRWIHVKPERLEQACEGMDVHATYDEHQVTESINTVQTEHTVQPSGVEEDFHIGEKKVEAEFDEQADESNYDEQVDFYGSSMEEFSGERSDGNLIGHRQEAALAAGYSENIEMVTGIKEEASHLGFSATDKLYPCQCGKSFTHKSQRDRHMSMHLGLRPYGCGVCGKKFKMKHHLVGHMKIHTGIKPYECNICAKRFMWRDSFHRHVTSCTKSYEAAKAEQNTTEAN
B4: E3 ubiquitin-protein ligase LNX (Homo sapiens), Q8TBB1 (parent)
chain: B2 chain
partner: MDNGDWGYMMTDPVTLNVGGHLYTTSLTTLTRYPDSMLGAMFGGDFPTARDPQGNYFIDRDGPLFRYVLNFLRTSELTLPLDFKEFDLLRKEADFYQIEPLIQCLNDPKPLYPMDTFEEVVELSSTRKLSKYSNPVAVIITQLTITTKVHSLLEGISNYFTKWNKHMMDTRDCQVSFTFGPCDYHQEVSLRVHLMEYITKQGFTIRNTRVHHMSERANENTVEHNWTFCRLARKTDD
B5: E3 ubiquitin-protein ligase LNX (Homo sapiens), Q8TBB1 (parent)
chain: B2 chain
partner: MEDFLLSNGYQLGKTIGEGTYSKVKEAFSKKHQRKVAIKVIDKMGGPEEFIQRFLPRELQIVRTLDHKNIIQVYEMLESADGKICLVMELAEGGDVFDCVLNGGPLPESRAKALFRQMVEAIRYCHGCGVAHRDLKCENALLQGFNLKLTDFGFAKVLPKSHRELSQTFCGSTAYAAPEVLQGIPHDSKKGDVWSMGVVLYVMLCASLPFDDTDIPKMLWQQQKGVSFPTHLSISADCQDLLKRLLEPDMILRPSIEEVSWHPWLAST
B6: Coiled-coil alpha-helical rod protein 1 (Homo sapiens), Q8TD31 (parent)
chain: MFPPSGSTGLIPPSHFQARPLSTLPRMAPTWLSDIPLVQPPGHQDVSERRLDTQRPQVTMWERDVSSDRQEPGRRGRSWGLEGSQALSQQAEVIVRQLQELRRLEEEVRLLRETSLQQKMRLEAQAMELEALARAEKAGRAEAEGLRAALAGAEVVRKNLEEGSQRELEEVQRLHQEQLSSLTQAHEEALSSLTSKAEGLEKSLSSLETRRAGEAKELAEAQREAELLRKQLSKTQEDLEAQVTLVENLRKYVGEQVPSEVHSQTWELERQKLLETMQHLQEDRDSLHATAELLQVRVQSLTHILALQEEELTRKVQPSDSLEPEFTRKCQSLLNRWREKVFALMVQLKAQELEHSDSVKQLKGQVASLQEKVTSQSQEQAILQRSLQDKAAEVEVERMGAKGLQLELSRAQEARRRWQQQTASAEEQLRLVVNAVSSSQIWLETTMAKVEGAAAQLPSLNNRLSYAVRKVHTIRGLIARKLALAQLRQESCPLPPPVTDVSLELQQLREERNRLDAELQLSARLIQQEVGRAREQGEAERQQLSKVAQQLEQELQQTQESLASLGLQLEVARQGQQESTEEAASLRQELTQQQELYGQALQEKVAEVETRLREQLSDTERRLNEARREHAKAVVSLRQIQRRAAQEKERSQELRRLQEEARKEEGQRLARRLQELERDKNLMLATLQQEGLLSRYKQQRLLTVLPSLLDKKKSVVSSPRPPECSASAPVAAAVPTRESIKGSLSVLLDDLQDLSEAISKEEAVCQGDNLDRCSSSNPQMSS
partner: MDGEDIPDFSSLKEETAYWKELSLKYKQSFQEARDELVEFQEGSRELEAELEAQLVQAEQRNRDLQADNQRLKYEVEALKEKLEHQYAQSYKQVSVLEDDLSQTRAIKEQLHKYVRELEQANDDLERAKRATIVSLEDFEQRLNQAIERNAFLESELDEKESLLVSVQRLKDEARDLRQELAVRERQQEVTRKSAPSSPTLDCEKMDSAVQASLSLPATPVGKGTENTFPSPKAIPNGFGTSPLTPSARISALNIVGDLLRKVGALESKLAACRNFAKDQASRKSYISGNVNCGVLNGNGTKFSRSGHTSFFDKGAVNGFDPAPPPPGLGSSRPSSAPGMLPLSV
B7: Coiled-coil alpha-helical rod protein 1 (Homo sapiens), Q8TD31 (parent)
chain: B6 chain
partner: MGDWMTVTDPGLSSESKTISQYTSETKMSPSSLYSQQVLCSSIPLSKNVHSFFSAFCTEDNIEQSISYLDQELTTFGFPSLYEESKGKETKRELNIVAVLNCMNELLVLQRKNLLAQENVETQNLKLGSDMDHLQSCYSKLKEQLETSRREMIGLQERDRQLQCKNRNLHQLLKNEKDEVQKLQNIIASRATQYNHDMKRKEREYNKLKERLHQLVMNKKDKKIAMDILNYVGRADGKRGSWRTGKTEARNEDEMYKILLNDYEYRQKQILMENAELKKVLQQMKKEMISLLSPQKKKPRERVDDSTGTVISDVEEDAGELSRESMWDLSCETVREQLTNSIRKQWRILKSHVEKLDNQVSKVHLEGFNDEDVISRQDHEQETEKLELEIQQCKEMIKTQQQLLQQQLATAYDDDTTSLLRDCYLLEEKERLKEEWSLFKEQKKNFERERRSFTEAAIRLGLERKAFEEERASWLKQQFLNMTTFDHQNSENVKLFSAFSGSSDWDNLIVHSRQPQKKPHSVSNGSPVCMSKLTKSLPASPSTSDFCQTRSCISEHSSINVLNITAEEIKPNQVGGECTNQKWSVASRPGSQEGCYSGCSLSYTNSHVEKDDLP
B8: TBC1 domain family member 22B (Homo sapiens), Q9NU19 (parent)
chain: MAAENSKQFWKRSAKLPGSIQPVYGAQHPPLDPRLTKNFIKERSKVNTVPLKNKKASSFHEFARNTSDAWDIGDDEEEDFSSPSFQTLNSKVALATAAQVLENHSKLRVKPERSQSTTSDVPANYKVIKSSSDAQLSRNSSDTCLRNPLHKQQSLPLRPIIPLVARISDQNASGAPPMTVREKTRLEKFRQLLSSQNTDLDELRKCSWPGVPREVRPITWRLLSGYLPANTERRKLTLQRKREEYFGFIEQYYDSRNEEHHQDTYRQIHIDIPRTNPLIPLFQQPLVQEIFERILFIWAIRHPASGYVQGINDLVTPFFVVFLSEYVEEDVENFDVTNLSQDMLRSIEADSFWCMSKLLDGIQDNYTFAQPGIQKKVKALEELVSRIDEQVHNHFRRYEVEYLQFAFRWMNNLLMRELPLRCTIRLWDTYQSEPEGFSHFHLYVCAAFLIKWRKEILDEEDFQGLLMLLQNLPTIHWGNEEIGLLLAEAYRLKYMFADAPNHYRR
partner: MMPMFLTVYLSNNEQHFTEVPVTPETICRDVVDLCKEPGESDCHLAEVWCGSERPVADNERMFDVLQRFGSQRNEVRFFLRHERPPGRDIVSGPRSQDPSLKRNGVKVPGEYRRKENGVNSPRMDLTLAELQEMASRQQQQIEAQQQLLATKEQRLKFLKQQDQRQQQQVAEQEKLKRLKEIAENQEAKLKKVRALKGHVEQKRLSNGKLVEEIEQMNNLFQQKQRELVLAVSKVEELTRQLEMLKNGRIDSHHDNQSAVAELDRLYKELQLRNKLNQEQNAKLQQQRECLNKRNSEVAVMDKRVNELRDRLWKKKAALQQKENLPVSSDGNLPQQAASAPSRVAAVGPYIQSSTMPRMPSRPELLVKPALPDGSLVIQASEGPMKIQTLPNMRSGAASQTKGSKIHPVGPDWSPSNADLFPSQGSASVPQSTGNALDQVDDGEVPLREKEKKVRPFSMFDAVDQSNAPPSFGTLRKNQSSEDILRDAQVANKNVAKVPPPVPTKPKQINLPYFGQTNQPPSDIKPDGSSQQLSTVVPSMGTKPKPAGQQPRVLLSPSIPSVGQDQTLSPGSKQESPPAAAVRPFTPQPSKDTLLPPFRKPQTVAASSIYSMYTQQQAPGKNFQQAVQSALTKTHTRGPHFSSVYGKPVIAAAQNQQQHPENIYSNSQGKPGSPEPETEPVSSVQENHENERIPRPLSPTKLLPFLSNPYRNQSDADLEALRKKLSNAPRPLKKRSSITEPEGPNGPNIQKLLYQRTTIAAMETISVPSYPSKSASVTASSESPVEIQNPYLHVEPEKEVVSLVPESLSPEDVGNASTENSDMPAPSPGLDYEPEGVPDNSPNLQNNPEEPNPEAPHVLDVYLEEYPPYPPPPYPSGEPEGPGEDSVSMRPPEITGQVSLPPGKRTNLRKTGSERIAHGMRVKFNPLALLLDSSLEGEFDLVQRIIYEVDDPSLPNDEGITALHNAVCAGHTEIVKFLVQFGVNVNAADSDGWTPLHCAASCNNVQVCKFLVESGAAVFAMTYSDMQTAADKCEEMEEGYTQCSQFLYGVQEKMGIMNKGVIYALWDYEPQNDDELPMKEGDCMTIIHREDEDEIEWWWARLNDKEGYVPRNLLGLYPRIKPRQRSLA

Variants of: B1
Conditions: with tuft1_human TUFT1, Q9NNX1

Variant	effect of a mutation on the interaction
R167G	with no effect

Variants of: B2
Conditions: with fsbp_human FSBP

Variant	effect of a mutation on the interaction
E295K	disrupting interaction strength

Variants of: B3
Conditions: with zbt43_human ZBTB43, O43298

Variant	effect of a mutation on the interaction
E295K	disrupting interaction strength

Variants of: B4
Conditions: with kctd6_human KCTD6, Q8NC69

Variant	effect of a mutation on the interaction
E295K	disrupting interaction strength

Variants of: B5
Conditions: with tssk3_human TSSK3, Q96PN8

Variant	effect of a mutation on the interaction
E295K	disrupting interaction strength

Variants of: B6
Conditions: with ndel1_human NDEL1, Q9GZM8

Variant	effect of a mutation on the interaction
W337R	disrupting interaction strength

Variants of: B7
Conditions: with adip_human SSX2IP

Variant	effect of a mutation on the interaction
W337R	disrupting interaction strength

Variants of: B8
Conditions: with aspp2_human TP53BP2, Q13625

Variant	effect of a mutation on the interaction
A349T	disrupting interaction strength
